The text below walks through data of patent US20110294135, “COMPOSITIONS AND METHODS FOR ANALYTE DETECTION AND QUANTITATION” (BioDesic, LLC, published 2011).

The target of data set [1] is T1, LG-268-NRE (Protein LG fused to Zif268-NRE six-finger zinc finger protein) (Artificial Sequence). Put plainly: EMSA; 0.03 mM protein, Tris-glycine, room temp 15-60 min, 4-20% acrylamide gel, SYBR Gold; detector complex visible, further shifted by bovine IgG. To be noted: tags: C-terminal His tag (pET20b(+)); N-terminal Protein LG fusion. As to the method:
Stock solutions of LG-268-NRE (0.1 mM), the DNA detection moiety (500 ng/μl for a 50-mer and 1 μg/μl for an 80- or 100-mers), the target analytes (Bovine IgG antibodies (Equitech Bio, B60-0010; Final concentration of 1 mg/ml), and loading buffer (Jule Tris-Glycine running buffer; Jule Inc.; Catalog Number: TGNRB10X) were combined at the same time and mixed in a microfuge tube in a final reaction volume of 75 μl. Final concentrations were as follows: 0.03 mM for LG-268-NRE, 100 ng/75 μl for the 50-mer, and 10 μg/75 μl for the 80- or 100-mers. The combined mixture was then allowed to sit for 15-60 minutes at room temperature (approximately 20-22° C.). Appropriate volumes of the controls and the mixed solution were then loaded into wells of acrylamide (50 μl) or agarose gels (75 μl) and run as described below. The agarose gels and the staining buffer are made with Jule Tris-Glycine running buffer (Jule Inc.; Catalog Number: TGNRB10X). The binding reactions are also performed with a range of protein concentrations and/or in the presence of salt, e.g., 50-100 mM KCl or NaCl. Molecular weight standards were: Bioline Hyperladder 1: BIO-33053; Hyperladder 2: BIO-33054; and Hyperladder 3: BIO-33055.
(A gel shift assay detects complexes by their altered migration in electrophoresis.)

In data set [2] the target is T1, LG-268-NRE (Protein LG fused to …). Put plainly: EMSA; 0.03 mM protein, Tris-glycine, room temp 15-60 min, SYBR Gold; detector complex visible, further shifted by bovine IgG. To be noted: tags: C-terminal His tag (pET20b(+)); N-terminal Protein LG fusion.

B1: 80-mer DNA detection moiety (dsDNA)
DNA 1: TTTTGGGGTTGATAGAAAAGATAGAGGGTATAGTGAGTCGTATTAATTTCAGAATTCATTTCAAGGGTTCAGCGTGGGCG
DNA 2: CGCCCACGCTGAACCCTTGAAATGAATTCTGAAATTAATACGACTCACTATACCCTCTATCTTTTCTATCAACCCCAAAA
With B1, the binding result in data set [1] was “binds”.

B2: 100-mer DNA detection moiety (dsDNA)
DNA 1: CCCACTTCATTGTGCCAAAGTTTTGGGGTTGATAGAAAAGATAGAGGGTATAGTGAGTCGTATTAATTTCAGAATTCATTTCAAGGGTTCAGCGTGGGCG
DNA 2: CGCCCACGCTGAACCCTTGAAATGAATTCTGAAATTAATACGACTCACTATACCCTCTATCTTTTCTATCAACCCCAAAACTTTGGCACAATGAAGTGGG
Regarding B2, the binding result in data set [2] is on record as “binds”.
